# Test results taken from patent publication US20220332804A1 (CSL INNOVATION, published 2022).
# T1: human C2 N380A (human, UniProt P06681 21-752)
# T1 sequence: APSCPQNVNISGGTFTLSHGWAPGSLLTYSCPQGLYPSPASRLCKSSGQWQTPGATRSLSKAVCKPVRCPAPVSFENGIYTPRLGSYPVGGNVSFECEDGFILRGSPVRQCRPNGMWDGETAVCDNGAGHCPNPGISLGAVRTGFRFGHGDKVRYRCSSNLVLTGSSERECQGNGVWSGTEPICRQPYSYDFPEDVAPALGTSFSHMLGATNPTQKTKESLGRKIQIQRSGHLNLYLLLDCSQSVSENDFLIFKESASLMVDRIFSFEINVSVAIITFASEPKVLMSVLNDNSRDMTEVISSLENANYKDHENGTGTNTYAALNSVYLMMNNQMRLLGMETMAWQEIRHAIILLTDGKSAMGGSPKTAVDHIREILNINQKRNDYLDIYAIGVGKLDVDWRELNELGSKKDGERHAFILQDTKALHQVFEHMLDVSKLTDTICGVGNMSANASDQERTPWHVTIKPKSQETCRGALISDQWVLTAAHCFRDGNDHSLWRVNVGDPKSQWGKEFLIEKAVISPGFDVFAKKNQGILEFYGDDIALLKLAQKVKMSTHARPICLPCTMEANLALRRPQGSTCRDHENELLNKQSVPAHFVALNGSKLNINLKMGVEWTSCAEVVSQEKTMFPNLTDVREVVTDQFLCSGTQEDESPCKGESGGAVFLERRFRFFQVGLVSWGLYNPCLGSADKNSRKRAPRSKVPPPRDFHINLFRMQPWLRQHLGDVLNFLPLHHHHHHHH
# T2: human C2 D431A (human, UniProt P06681 21-752)
# T2 sequence: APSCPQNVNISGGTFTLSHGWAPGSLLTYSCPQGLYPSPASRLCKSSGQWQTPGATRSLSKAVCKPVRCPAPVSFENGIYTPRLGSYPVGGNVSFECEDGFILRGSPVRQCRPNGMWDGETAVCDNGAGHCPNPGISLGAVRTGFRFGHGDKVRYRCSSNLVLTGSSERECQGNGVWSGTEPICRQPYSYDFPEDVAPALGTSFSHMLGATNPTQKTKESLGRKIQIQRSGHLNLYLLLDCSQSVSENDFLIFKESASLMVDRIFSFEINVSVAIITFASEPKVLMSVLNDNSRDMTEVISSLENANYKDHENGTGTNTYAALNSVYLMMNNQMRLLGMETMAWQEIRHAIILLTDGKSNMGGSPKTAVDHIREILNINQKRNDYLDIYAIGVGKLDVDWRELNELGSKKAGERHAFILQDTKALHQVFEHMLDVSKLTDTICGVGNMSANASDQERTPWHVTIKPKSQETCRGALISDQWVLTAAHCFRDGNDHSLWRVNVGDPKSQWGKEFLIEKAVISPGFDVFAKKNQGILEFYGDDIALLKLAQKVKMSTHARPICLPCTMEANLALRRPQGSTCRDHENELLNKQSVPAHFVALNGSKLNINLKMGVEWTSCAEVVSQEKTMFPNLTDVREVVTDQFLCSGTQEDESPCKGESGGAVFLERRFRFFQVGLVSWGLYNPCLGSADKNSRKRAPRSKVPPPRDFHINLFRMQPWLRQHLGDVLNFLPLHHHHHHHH
# T3: human C2 Q447A (human, UniProt P06681 21-752)
# T3 sequence: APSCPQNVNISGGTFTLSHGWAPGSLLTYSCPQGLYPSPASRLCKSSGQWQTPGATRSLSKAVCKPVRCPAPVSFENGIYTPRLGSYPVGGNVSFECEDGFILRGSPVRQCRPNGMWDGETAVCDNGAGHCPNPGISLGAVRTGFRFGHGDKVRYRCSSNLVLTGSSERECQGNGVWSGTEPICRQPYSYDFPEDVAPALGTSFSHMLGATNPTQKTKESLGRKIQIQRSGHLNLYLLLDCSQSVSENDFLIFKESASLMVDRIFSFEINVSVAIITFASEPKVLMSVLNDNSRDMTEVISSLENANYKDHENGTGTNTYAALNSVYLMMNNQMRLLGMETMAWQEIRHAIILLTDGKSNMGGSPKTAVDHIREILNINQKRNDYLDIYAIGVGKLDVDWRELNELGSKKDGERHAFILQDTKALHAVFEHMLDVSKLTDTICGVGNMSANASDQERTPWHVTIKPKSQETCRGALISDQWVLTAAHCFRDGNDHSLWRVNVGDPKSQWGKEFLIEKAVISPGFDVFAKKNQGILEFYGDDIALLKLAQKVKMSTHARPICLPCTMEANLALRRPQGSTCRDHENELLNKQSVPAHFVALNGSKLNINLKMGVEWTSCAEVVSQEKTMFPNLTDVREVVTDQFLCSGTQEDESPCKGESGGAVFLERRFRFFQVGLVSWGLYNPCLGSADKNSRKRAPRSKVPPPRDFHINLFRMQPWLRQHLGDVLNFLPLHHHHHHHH
# T4: human C2 V448A (human, UniProt P06681 21-752)
# T4 sequence: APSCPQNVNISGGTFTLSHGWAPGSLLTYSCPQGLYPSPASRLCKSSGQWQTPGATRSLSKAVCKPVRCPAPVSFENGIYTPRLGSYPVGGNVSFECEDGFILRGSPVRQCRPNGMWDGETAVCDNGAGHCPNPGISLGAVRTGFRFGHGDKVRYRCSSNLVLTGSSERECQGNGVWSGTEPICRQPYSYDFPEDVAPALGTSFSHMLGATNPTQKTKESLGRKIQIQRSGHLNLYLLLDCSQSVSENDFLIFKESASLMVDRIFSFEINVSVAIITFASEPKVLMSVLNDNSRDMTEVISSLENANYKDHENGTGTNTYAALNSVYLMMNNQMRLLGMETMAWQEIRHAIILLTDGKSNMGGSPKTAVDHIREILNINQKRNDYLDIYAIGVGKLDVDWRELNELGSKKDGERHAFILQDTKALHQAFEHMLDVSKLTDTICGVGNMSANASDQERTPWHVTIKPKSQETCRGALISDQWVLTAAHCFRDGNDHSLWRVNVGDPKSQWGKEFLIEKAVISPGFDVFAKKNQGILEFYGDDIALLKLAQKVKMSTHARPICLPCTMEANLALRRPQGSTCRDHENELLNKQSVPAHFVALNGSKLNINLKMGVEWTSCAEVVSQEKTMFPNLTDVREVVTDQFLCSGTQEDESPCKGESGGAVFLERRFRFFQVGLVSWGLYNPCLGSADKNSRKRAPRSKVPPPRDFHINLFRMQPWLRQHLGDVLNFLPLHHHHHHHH
# B1: RF16-214 (antibody, V domains shown)
# VH: EVQLLESGGGLVQPGGSLRLSCAASGFTFSWYQMMWVRQAPGKGLEWVSRIYPSGGGTAYADSVKGRFTISRDNSKNTLYLQMNSLRAEDTAVYYCARDAGYGDNWGQGTLVTVSS
# VL: QSALTQPPSVSVSPGQTASITCSGDKLGEKYASWYQQKAGQSPVMVIYQDRKRPSGIPERFSGSNSGNTATLTISGTQAMDEADYYCQAWDTRAVVFGGGTKLTVLG
# Legend:
# Assay in all cases: SPR, mAb captured, C2 mutant analyte;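 further: Anti-C2 mAbs captured on goat anti-human IgG Biacore CM5 chips, alanine or serine C2 surface mutants flowed over at 37 °C, double-referenced sensorgrams fitted to a 1:1 binding model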
# human C2 N380A = target: T1, human C2 N380A
# human C2 D431A = target: T2, human C2 D431A
# human C2 Q447A = target: T3, human C2 Q447A
# human C2 V448A = target: T4, human C2 V448A
binder,measurement,setting,value
B1,Kd,human C2 N380A,58.8 nM
same,Kd,human C2 D431A,71.8 nM
same,Kd,human C2 Q447A,133 nM
same,Kd,human C2 V448A,6.9 nM
